Assay results published in the RNAGym collection of RNA variant scans (doi:10.1073/pnas.2313332121).
Fewer inactive variants are shown than the library holds.

B1: TPR 5TU (parent)
chain: GGAUCUUCUCGAUCUAACAAAAAAGACAAAUCUGCCACAAAGCUUGAGAGCAUCUUCGGAUGCAGAGGCGGCAGCCUUCGGUGGCGCGAUAGCGCCAACGUUCUCAACUAUGACACGCAAAACGCGUGCUCCGUUGAAUGGAGUUUAUCAUG

Variants of: B1
Test: polymerase ribozyme fitness, log enrichment relative to wild type (log ratio); higher = more active; in vitro selection for triplet polymerase activity
In short: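 A heterodimeric triplet polymerase ribozyme had each of its subunits mutagenized by PCR into a library, which was transcribed. One round of in vitro selection, done in triplicate, annealed each library with a biotinylated primer, its partner subunit and triplets, then incubated it frozen at −7 °C before gel excision of extended constructs, streptavidin-bead capture and RT-PCR. Fitness is the logarithm of genotype enrichment relative to wild-type enrichment, based on Illumina sequencing of inputs and outputs and inverse-variance-weighted replicate averages. A base-2 logarithm is used, and genotypes were kept only with ≥10 input reads and ≥1 read per output.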

Point of comparison: GGAUCUUCUCGAUCUAACAAAAAAGACAAAUCUGCCACAAAGCUUGAGAGCCUCUUCGGAUGCAGAGGCGGCAGCCUUCGGUGACGCCAUAGCGCCAACGUUCUCAACUAUGACACGCAAAACGCGUGCUCCGUUGAAUGGAGUUUAUCAUG [A52C G84A G88C], “polymerase ribozyme fitness (log ratio)” value -4.09. Against it:
- GGAUCUUCUCGAUCUAACAAAAAAGACAAAUCUGCCACAAAGCUUGAGAGCCUCUUCGGAUGCAGAGGCGGCAGCCUUCGGUGGCGCAAUAGCGCCAACGUUCUCAACUAUGACACGCAAAACGCGUGCUCCGUUGAAUGGAGUUGAUCCUG [A52C G88A U146G A150C] — lower, ≤ -4.2
- GGAUCUUCUCGAUCUAACAAAAAAGACAAAUCUGCCACAAAGCUUGAGAGCCUCUUCGGAUGCAGAGGCGGCAGCCUUCGGUGGCGCGAUAUCGCCAACGUUGUCCACUAUGACACGCAAAACGCGUGCUCCGUUGAAUGGAGUUUAUCAUG [A52C G92U C103G A106C] — lower, ≤ -4.2
- GGAUCUUCUCGAUCUAACAAAAAAGACAAAUCUGCCACAAAGCUUGAGAGCCUCUUCGGAUGCAGAGGCGGCAGCCUUCGGUGGCGCGAUAUCGCCAACGUUCUCAACUAUGACACGCAAAACGCGUGCUCCGUUGAAUGGAGUUUAUCAUU [A52C G92U G152U] — higher, -3.32
- GGAUCUUCUCGAUCUAACAAAAAAGACAAAUCUGCCACAAAGCUUGAGAGCCUCUUCGGAUGCAGAGGCGGCAGCCUUCGGUGACGCGAUAGCGCCAACGUUCUCAACUAUGACAGGCAUAACGCGUGCUCCGUUGAAUGGAGUUUAUCAUG [A52C G84A C116G A120U] — higher, -1.12
- GGAUCUUCUCGAUCUAACAAAAAAGACAAAUCUGCCACAAAGCUUGAGAGCCACUUCGGAUGCAGAGGCGGCAGCCUUCGGUGGCAUGAUAGCGCCAACGUUCUAUACUAUGACACGCAAAACGCGUGCUCCGUUGAAUGGAGUUUAUCAUG [A52C U53A G86A C87U C105A A106U] — lower, ≤ -4.2
- GGAUCUUCUCGAUCUAACAAAAAAGACAAAUCUGCCACAAAGCUUGAGAGCCUCUUCGGAUGCAGAGGCGGCAGCCUUCGGUUGCGCGAUAGCGCCAACGUUCUCGACUAUGACACGCAAAACGCGUGCUCCGUUGAAUGGAGUUUAUCAUG [A52C G83U A106G] — higher, -2.56
- GGAUCUUCUCGAUCUAACAAAAAAGACAAAUCUGCCACAAAGCUUGAGAGCCACUUCGGAUGCAGAGGCGGCAGCCUUCGGUGGCGCGAUAGCGCCAACGUUCUCAACUAUGACACGCAAAACGCGUGCUCCGUUGAAUGGAGUUUAUCAUG [A52C U53A] — higher, -3.29
- GGAUCUUCUCGAUCUAACAAAAAAGACAAAUCUGCCACAAAGCUUGAGAGCCUCUUCGGAUGCAGAGGCGGCAGCCUUCGGUGGCCCGAUAGCGCCAACGUUCUCAACUAUGACACGCAAAACGCGUGCUCCGUUGAAUGGAGUUUAUCAUG [A52C G86C] — within 0.2 log units, -4.07
- GGAUCUUCUCGAUCUAACAAAAAAGACAAAUCUGCCACAAAGCUUGAGAGCCUCUUCGGAUGCAGAGGCGGCAGCCUUCGGUGGCACGAUAGCGCCAACGUUCUCAACUAUGACACGCAAAACGCGUGCUCCGUUGAAUGGAGUUUAUCAUG [A52C G86A] — higher, -1.2
- GGAUCUUCUCGAUCUAACAAAAAAGACAAAUCUGCCACAAAGCUUGAGAGCCUCUUCGGAUGCAGAGGCGGCAGCCUUCGGUGGCGCGAUAGCGCCAACGUUCUCAACUAUGACACGCAAAACGCGUGCUCCGUUGAAUGGACUUUAUCAUG [A52C G143C] — higher, -3.51
- GGAUCUUCUCGAUCUAACAAAAAAGACAAAUCUGCCACAAAGCUUGAGAGCCUCUUCGGAUGCAGAGGCGGCAGCCUUCGGUUGCGCGAUAGCGCCAACGUUCUCAACUAUGACACGCAAAACGCGUGCUCCGUUGAAUGGAGUUUAUCAUG [A52C G83U] — higher, -2.01
- GGAUCUUCUCGAUCUAACAAAAAAGACAAAUCUGCCACAAAGCUUGAGAGCCACUUCGGAUGCAACGGCGGCAGCCUUUGGUGGCGCGAUAGCGCCAACGUUCUCAACUAUGACACGCAAAACGCGUGCUCCGUUGAAUGGAGUUUAUUAUG [A52C U53A G65A A66C C79U C149U] — lower, ≤ -4.2
- GGAUCUUCUCGAUCUAACAAAAAAGACAAAUCUGCCACAAAGCUUGAGAGCCUCUUCGGAUGCAGAGGCGGCAGCCUUCGGUGUCGCGAUAGCGCCAACGUUCUCAACUAUGACACGCAAAACGCGUGCUCCGUUGAAUGGAGUUUAUCAUG [A52C G84U] — higher, -2.64
- GGAUCUUCUCGAUCUAACAAAAAAGACAAAUCUGCCACAAAGCUUGAGAGCCUCUUCGGAUGCAGAGGCGGCAGCCUUCGGUGACGCGAUAGCGCCAACGUUCUCAACUAUGACACGCAAAACGCGUGCUCCGUUGAAUGGAGUUUAUCAUG [A52C G84A] — higher, -1.32
- GGAUCUUCUCGAUCUAACAAAAAAGACAAAUCUGCCACAAAGCUUGAGAGCCUCUUCGGAUGCAGAGGCGGCAGCCUUCGGUCGCGUGAUAGCGCCAACGUUCUCAACUAUGACACGCAAAGCGCGUGCUCCGUUGAAUGGAGUUUAUCAUG [A52C G83C C87U A122G] — lower, ≤ -4.2
- GGAUCUUCUCGAUCUAACAAAAAAGACAAAUCUGCCACAAAGCUUGAGAGCCUCUUCGGAUGCAGAGGCGGCAGCCUUCGGUGGCGCGAUAGCACCAACGUUCUCAACUAUGACACGCAAAACGCGUGCUCCGUUGAAUGGAGUUUAUCAUG [A52C G94A] — higher, -0.384
- GGAUCUUCUCGAUCUAACAAAAAAGACAAAUCUGCCACAAAGCUUGAGAGCCUCUUCGGAUGCAGAGGCGGCAGCCUUCGGUGGCGCGAUAGCCCCAACGUUCUCGACUAUGACACGCAAAACGCGUGCUCCGUUGAAUGGAGUUUAUCAUG [A52C G94C A106G] — higher, -1.86
- GGAUCUUCUCGAUCUAACAAAAAAGACAAAUCUGCCACAAAGCUUGAGAGCCUCUUCGGAUGCAGAGGCGGCAGCCUUCGGUGUCGCGAUAGCGCUAACGUUCUCAACUAUGACACGCAAAACGCGUGCUCCGUUGAAUGGAGAUUAUCAUG [A52C G84U C96U U144A] — lower, ≤ -4.2
